# Molecular target: HCoV-229E spike (S) protein, S2 subunit fusion core (HR1/HR2) (human coronavirus 229E, UniProt P15423)
# Assay: cell-based or functional assay
binder,measurement,value
SLTQINTTLLDLTYEMLSLQQVVKALNESYIDLKEL [peptide #1 (Peptide 1 (WT))],"IC50 (plaque reduction test, Vero E6 cells)",8.5 µg/mL

# — US11707504B1 (KING FAISAL UNIVERSITY, dated 2023)
